Positions count from the first letter of the chain named.
B1: PMP17C4 (VHH)
VHH: AVQLVDSGGGLVQAGDSLRLSCAASGRTFSNYAMAWFRQAPGKEREFVAVISYAGGRTYYADSVKGRFTISRDNAKNTVYLQMNSLKPEDTAVYYCAAVDSPLIATHPRGYDYWGQGTQVTVSS
notes: Monovalent Nanobody
B2: PMP6G10 (VHH)
VHH: QVQLVESGGGLAQAGGSLRLSCVVSGRTFSPYTIGWFSQRPGKEREWVATIIGSDRSTDLDGDTYYADSVRGRFTISRNDAKNTVSLQMNSLKPEDSAVYYCALTAKGYVFTDNEYDYWGQGTQVTVSS
notes: Monovalent Nanobody
B3: PMP6D5 (VHH)
VHH: QVQLVESGGGLVQAGGSLRLSCAASGRTFSPYTMGWFRQPPGKVREFVGRINWSGIRNYADSVKGRFTISRDNNNNTVYLQMNRLKPEDTAVYYCAAASQSGSGYDSWGQGTQVTVSS
B4: PMP13D8 (VHH)
VHH: B3 VHH with Q3K, V5E, G16S, F29S, R57T, N75K, A97S, S101V
notes: Monovalent Nanobody
B5: PMP21A7 (VHH)
VHH: B3 VHH with Q1A, G16S, R57T, N75K, Q100R
notes: Monovalent Nanobody
B6: PMP20F4 (VHH)
VHH: B3 VHH with Q100R
notes: Monovalent Nanobody
B7: PMP20G9 (VHH)
VHH: B3 VHH with M34V
notes: Monovalent Nanobody
B8: PMP13A1 (VHH)
VHH: B3 VHH with Q1A, E6D
notes: Monovalent Nanobody
B9: NC3 (VHH)
VHH: EVQLVESGGGLVQPGGSLRLSCAASGNIAAINVMNWYRQAPGTQREFVAAITSGGRKNYADSVKGRFTISRDNAKNTVHLQMNSLKPEDTAVYYCNADAPLASDDDVAPADYWGQGTQVTVSS
notes: Monovalent Nanobody
B10: PMP21E12 (VHH)
VHH: AVQLVESGGGLVQPGGSLRLSCAASGSITSINPMGWYRQAPGKQRELVARIHGSITNYADSVKGRFTISRDIAKNTVYLQMNSLKPEDTAVYYCNARRWGYDYWGQGAQVTVSS
notes: Monovalent Nanobody
B11: PMP21C12 (VHH)
VHH: B10 VHH with S30G, V77A
notes: Monovalent Nanobody
B12: PMP21B4 (VHH)
VHH: QVQLVESGGGLVQAGDSLRVACAASGRTFSIDAMAWFRQAPGKEREFVSTMNWSTGATYYADSVKGRFTSSRDNAKSTSYLQMNSLKPEDTAVYYCAAARGLLIATDARGYDYWGQGTQVTVSS
notes: Monovalent Nanobody
B13: PMP6B7 (VHH)
VHH: QVQLVESGGGLVQAGGSLRLSCAASGGTFSAFPMGWFRQAPGKERKFVAGISQSGGSTHYSDSVKGRFTISRENAKNTVYLQMNSLKPEDTAVYYCAARGRTLALRNYAYTTEVGYDDWGQGTQVTVSS
notes: Monovalent Nanobody
B14: PMP17G7 (VHH)
VHH: B13 VHH with Q3K, V5E, A31S, F32Y, K46E, A49T, H59A, L103I
notes: Monovalent Nanobody
B15: PMP14E1 (VHH)
VHH: B13 VHH with G27R, A31S, F32Y, H59A, N77S, G100D, R101K, N107D, E113D
notes: Monovalent Nanobody
B16: PMP6E9 (VHH)
VHH: B13 VHH with Q1E, G27R, A31S, F32Y, G55S, G56S, H59A, N107D
notes: Monovalent Nanobody
B17: PMP14G1 (VHH)
VHH: B13 VHH with Q3K, V5E, K46E, R72K, R101G
notes: Monovalent Nanobody
B18: PMP14G11 (VHH)
VHH: B13 VHH with A31S, E44G, K46E
notes: Monovalent Nanobody
B19: PMP14E9 (VHH)
VHH: B13 VHH with Q1A, K46E, R72K, N77S
notes: Monovalent Nanobody
B20: PMP9F9 (VHH)
VHH: B13 VHH with Q1A, A31S, K43E, E44K, K46E, K76R
notes: Monovalent Nanobody
B21: PMP17D7 (VHH)
VHH: B13 VHH with Q1A, E6D, K46E, R72K
notes: Monovalent Nanobody
B22: PMP14A8 (VHH)
VHH: B13 VHH with Q1E, A31S, S85N
notes: Monovalent Nanobody
B23: PMP12C5 (VHH)
VHH: B13 VHH with Q1D, S30T, A31S, F32Y, H59A, N77T, A104F, N107G
notes: Monovalent Nanobody
B24: PMP12H3 (VHH)
VHH: B13 VHH with Q1A, E6D, S30T, A31S, F32Y, H59A, N77T, A104F, N107D
notes: Monovalent Nanobody
B25: PMP17B5 (VHH)
VHH: B13 VHH with V79I
notes: Monovalent Nanobody
B26: PMP21C2 (VHH)
VHH: QVQLVESGGGLVQPGGSLRLSCAASEYITSINPMAWYRQAPGKQRDLVARIFGGGSTNYADSVKGRFTISRDIAKNTVSLQMNSLKPEDTAVYYCNARRWGYDYWGQGTQVTVSS
notes: Monovalent Nanobody
B27: PMP10A6 (VHH)
VHH: QVQLVESGGGLVQAGGSLRLSCASSGRTFSSYVMGWFRQTPGKEREFVSTINWSGSNGYYADSVKGRFTISRDNAKNTVYLQMNNLKPEDTAVYYCAASAGGFLVPRVGQGYDYWGQGTQVTVSS
notes: Monovalent Nanobody
B28: PMP13H6 (VHH)
VHH: B27 VHH with Q3K, V5E, G58K, N85S
notes: Monovalent Nanobody
B29: PMP10C4 (VHH)
VHH: AVQLVDSGGGLVQAGGSLRLSCAASGRSFSNYHMVWFRQAPGKEREFVAAASGSTSSTYYADSVKGRFTISRDNAKNTVYLQMNSLKPEDTAVYYCAAVAGLLLPRVAEGMDYWGKGTLVTVSS
notes: Monovalent Nanobody
B30: PMP7H3 (VHH)
VHH: DVQLVESGGGLVQPGGSLRLSCAASGFTLDYYGVGWFRQAPGKEREGVSCISSSDGDTYYADSVKGRFTISRDNAKNTVYLQMNSLKPEDTAVYYCATDLSDYGVCSRWPSPYDYWGQGTQVTVSS
notes: Monovalent Nanobody
B31: PMP22E3 (VHH)
VHH: QVQLVESGGGLVQPGGSLRLSCAASGFTLDDSAIGWFRQAPGKEREGVSCISSSDGDTYYDDSVKGRFTISRDNVKNMVYLQMNSLKPEDTAVYFCAIDLSDYGVCSKWPSPYDYWGQGTQVTVSS
notes: Monovalent Nanobody
B32: PMP9A9 (VHH)
VHH: B30 VHH with D1Q, T28S, I51T
notes: Monovalent Nanobody
B33: PMP20D2 (VHH)
VHH: AVQLVESGGGLVQPGGSLRLSCAASGSISRFNIMGWYRQAPGKQRELVADITNRGTTNYADSVKGRFTISRDNTKNTVYLQMNSLKPDDTAVYYCHTYYPTTGFDDWGQGTQVTVSS
notes: Monovalent Nanobody
B34: PMP14G4 (VHH)
VHH: AVQLVDSGGGLVQAGGSLRLSCAASGRTFSSYPMGWFRQGPGKERKFVAGISQSGVGTAYSDSVKGRFTISRENAKNTVYLQMNSLKPEDTAVYYCAARDKTLALRDYAYTTDVGYDDWGQGTQVTVSS
notes: Monovalent Nanobody
B35: PMP21E7 (VHH)
VHH: AVQLVESGGGLVQAGGSLRLSSVVSGGTFSSYPIAWFRQPPGKEREFVAAISWRGGNTYYADSVKGRFTISRDNAKNTVYLQMNSLKPEDTAVYYSAAERAGVLLTKVPEGYDYWGQGTQVTVSS
notes: Monovalent Nanobody
B36: PMP23H2 (VHH)
VHH: AVQLVDSGGGLVQPGGSLRLSCAASGSIFSRLAMDWYRQAPGKQRELVASIAVSGTTMLDDSVKGRFTISRDNAENTVYLQMNSLKPEDTAVYYCMAFDGYTGSDYWGRGTQVTVSS
notes: Monovalent Nanobody
B37: PMP17B11 (VHH)
VHH: QVQLVESGGGLVQAGGSLRLSCAASGPTFSTYAMGWFRQAPGKEREFVAAISWSGANTYYADSVKGRFTISRDNAKNTVYLRMNSLKPEDTAAYYCAASAIIEGFQDSIVIFSEAGYDYWGQGTQVTVSS
B38: NC6 (VHH)
VHH: EVQLVESGGGLVQAGGSLRLSCAASGPTFSSYAMGWFRQAPGKDREFVAAISSNGGSTRYADSVKGRFTISRDSAKNTAYLQMNSLKLEDTAVYYCAADETTGWVQLADFRSWGQGTQVTVSS
notes: Monovalent Nanobody

Assays:
[1] = biological target: T1, recombinant human IL6 (human, UniProt P05231 30-212); test: cell-based or functional assay
[2] = biological target: T1, recombinant human IL6; test: SPR, Biacore 3000; IL6 amine-coupled on CM5 chip, periplasmic extract injected
Description: Off-rate analysis of Nanobodies binding to IL6 was done by surface plasmon resonance on a Biacore 3000 instrument. Recombinant human IL6 was covalently bound to a CM5 sensor chip via amine coupling at a density of ˜500 RU. Remaining reactive groups were inactivated. Periplasmic extracts prepared from E. coli cells expressing anti-IL6 Nanobodies were diluted 10 or 15-fold and injected for 4 min to allow for binding to IL6 immobilized on the chip. Buffer without Nanobody was sent over the chip for 30 min to allow for spontaneous dissociation of bound Nanobody. The dissociation phase was used to calculate the koff values for each individual Nanobody (table B-1).

Binder	IC50, inhibition of proliferation of the murine hybridoma cell line B9 (B9 assay, cell proliferation normalized) [1] [nM]	koff [2] [s⁻¹]
B1	0.064	0.00137
B2		0.000433
B3		0.000511
B4		0.000251
B5		0.000526
B6		0.000195
B7		0.000318
B8		0.000396
B9		0.00056
B10		0.00222
B11		0.000897
B12	1.86	0.000658
B13		0.000199
B14		0.000669
B15		0.00057
B16		0.000631
B17		0.00079
B18		0.000229
B19		0.000531

Binder	IC50, inhibition of proliferation of the murine hybridoma cell line B9 (B9 assay, cell proliferation normalized) [1] [nM]	koff [2] [s⁻¹]
B20		0.00019
B21		0.00116
B22		0.000131
B23		0.000211
B24		0.000243
B25		0.00015
B26		0.00116
B27	0.332	0.00104
B28		0.00189
B29	0.961	0.00082
B30		0.00309
B31		0.00519
B32		0.00605
B33		0.000243
B34		0.000312
B35	0.05	0.000772
B36		0.0016
B37	0.702	0.00133
B38		0.00082

Reference: patent US20090297535A1 (Ablynx, published 2009)
